Measured values: patent US6908741 (TRANSTECH PHARMA, dated 2005)

Columns and labels:
[1] = target: T1, soluble RAGE (sRAGE), the soluble, extracellular portion of the human Receptor for Advanced Glycated … (human, UniProt Q15109 23-339); assay: ELISA saturation curve with Scatchard analysis (FIG. 9), 100 ng/well S-100b coated, sRAGE about 0.3-10 nM; high affinity component
[2] = target: T1, soluble RAGE (sRAGE), the soluble, …; assay: ELISA saturation curve with Scatchard analysis (FIG. 8), 50 ng/well S-100b coated, sRAGE about 0.3-10 nM; high affinity component
[3] = target: T1, soluble RAGE (sRAGE), the soluble, …; assay: ELISA saturation curves with Scatchard analysis (FIGS. 10 and 11), 500 and 100 ng/well S-100b coated, sRAGE about 23-470 nM or 5-76 nM; low affinity site, told for both experiments

T1 sequence (Q15109 23-339 limits assumed): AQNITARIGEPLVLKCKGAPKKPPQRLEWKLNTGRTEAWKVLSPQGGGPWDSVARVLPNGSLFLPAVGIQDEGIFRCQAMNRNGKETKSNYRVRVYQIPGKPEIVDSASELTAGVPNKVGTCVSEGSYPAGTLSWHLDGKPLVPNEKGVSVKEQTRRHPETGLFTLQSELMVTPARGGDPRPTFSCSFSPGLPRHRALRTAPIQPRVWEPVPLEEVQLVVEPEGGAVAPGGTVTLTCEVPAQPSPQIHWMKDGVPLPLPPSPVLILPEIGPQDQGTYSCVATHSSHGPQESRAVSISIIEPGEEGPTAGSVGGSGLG

B1: S-100b (ligand)
chain: MSELEKAMVALIDVFHQYSGREGDKHKLKKSELKELINNELSHFLEEIKEQEVVDKVMETLDNDGDGECDFQEFMAFVAMVTTACHEFFEHE
[1]
  Kd: ~2 nM
[2]
  Kd: ~6 nM
[3]
  Kd: ~60 nM
